From patent US20140378663A1

Target: T1, CD20 antigen on Raji lymphoblastoid B cells (UniProt P11836)
T1 sequence (looked up): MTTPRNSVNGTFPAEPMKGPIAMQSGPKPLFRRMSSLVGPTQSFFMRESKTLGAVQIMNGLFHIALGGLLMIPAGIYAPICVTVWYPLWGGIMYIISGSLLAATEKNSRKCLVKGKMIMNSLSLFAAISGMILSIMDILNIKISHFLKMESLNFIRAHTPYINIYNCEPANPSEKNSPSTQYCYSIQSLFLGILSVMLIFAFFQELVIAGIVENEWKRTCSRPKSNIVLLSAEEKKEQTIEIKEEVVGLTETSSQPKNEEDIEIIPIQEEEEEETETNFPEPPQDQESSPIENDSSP
Experiment: flow cytometry on Raji cells

B1: R603 chimeric anti-CD20 antibody (LFB-R603), IgG1 with wild-type Fc (antibody, INN chains, looked up, V domains shown, part only)
VH: QAYLQQSGAELVRPGASVKMSCKASGYTFTSYNMHWVKQTPRQGLEWIGGIYPGNGDTSYNQKFKGKATLTVGKSSSTAYMQLSSLTSEDSAVYFCARYDYNYAMDYWGQGTSVTVSS
VL: QIVLSQSPAILSASPGEKVTMTCRASSSVSYMHWYQQKPGSSPKPWIYATSNLASGVPARFSGSGSGTSYSFTISRVEAEDAATYYCQQWTFNPPTFGGGTRLEIK
modifications: IgG1
Ag binding MFI (Arbitrary Unit): 123
